Experimental data from the Human Domainome abundance scans (Beltran et al. 2025).
± gives the uncertainty stated by the source.

B1: Intersectin-1, residues 909 to 971; numbered along this chain, Q15811 (parent)
chain: QGEKVEGLQAQALYPWRAKKDNHLNFNKNDVITVLEQQDMWWFGEVQGQKGWFPKSYVKLISG

Variants of: B1
Experiment: abundance fitness (aPCA) (normalised: wild type 0, dead -1); higher = more abundant; growth selection in yeast, the domain comes from the species named
Conditions: Homo sapiens

Variant | abundance fitness
QGEWVEGLQAQALYPWRAKKDNHLNFNKNDVITVLEQQDMWWFGEVQGQKGWFPKSYVKLISG [K4W] | -0.08 ± 0.17
QGEHVEGLQAQALYPWRAKKDNHLNFNKNDVITVLEQQDMWWFGEVQGQKGWFPKSYVKLISG [K4H] | -0.168 ± 0.3
QGEEVEGLQAQALYPWRAKKDNHLNFNKNDVITVLEQQDMWWFGEVQGQKGWFPKSYVKLISG [K4E] | -0.11 ± 0.13
QGENVEGLQAQALYPWRAKKDNHLNFNKNDVITVLEQQDMWWFGEVQGQKGWFPKSYVKLISG [K4N] | -0.026 ± 0.17
QGEGVEGLQAQALYPWRAKKDNHLNFNKNDVITVLEQQDMWWFGEVQGQKGWFPKSYVKLISG [K4G] | -0.588 ± 0.15
QGELVEGLQAQALYPWRAKKDNHLNFNKNDVITVLEQQDMWWFGEVQGQKGWFPKSYVKLISG [K4L] | -0.248 ± 0.13
QGEYVEGLQAQALYPWRAKKDNHLNFNKNDVITVLEQQDMWWFGEVQGQKGWFPKSYVKLISG [K4Y] | -0.039 ± 0.23
QGEFVEGLQAQALYPWRAKKDNHLNFNKNDVITVLEQQDMWWFGEVQGQKGWFPKSYVKLISG [K4F] | -0.193 ± 0.27
QGECVEGLQAQALYPWRAKKDNHLNFNKNDVITVLEQQDMWWFGEVQGQKGWFPKSYVKLISG [K4C] | 0.207 ± 0.47
QGERVEGLQAQALYPWRAKKDNHLNFNKNDVITVLEQQDMWWFGEVQGQKGWFPKSYVKLISG [K4R] | -0.126 ± 0.1
QGEAVEGLQAQALYPWRAKKDNHLNFNKNDVITVLEQQDMWWFGEVQGQKGWFPKSYVKLISG [K4A] | -0.159 ± 0.12
QGEVVEGLQAQALYPWRAKKDNHLNFNKNDVITVLEQQDMWWFGEVQGQKGWFPKSYVKLISG [K4V] | -0.168 ± 0.18
QGEQVEGLQAQALYPWRAKKDNHLNFNKNDVITVLEQQDMWWFGEVQGQKGWFPKSYVKLISG [K4Q] | -0.39 ± 0.16
QGEPVEGLQAQALYPWRAKKDNHLNFNKNDVITVLEQQDMWWFGEVQGQKGWFPKSYVKLISG [K4P] | -0.29 ± 0.27
QGESVEGLQAQALYPWRAKKDNHLNFNKNDVITVLEQQDMWWFGEVQGQKGWFPKSYVKLISG [K4S] | -0.014 ± 0.098
QGEKVEGQQAQALYPWRAKKDNHLNFNKNDVITVLEQQDMWWFGEVQGQKGWFPKSYVKLISG [L8Q] | 0.05 ± 0.13
QGEKVEGGQAQALYPWRAKKDNHLNFNKNDVITVLEQQDMWWFGEVQGQKGWFPKSYVKLISG [L8G] | -0.048 ± 0.066
QGEKVEGKQAQALYPWRAKKDNHLNFNKNDVITVLEQQDMWWFGEVQGQKGWFPKSYVKLISG [L8K] | -0.136 ± 0.15
QGEKVEGEQAQALYPWRAKKDNHLNFNKNDVITVLEQQDMWWFGEVQGQKGWFPKSYVKLISG [L8E] | -0.003 ± 0.11
QGEKVEGHQAQALYPWRAKKDNHLNFNKNDVITVLEQQDMWWFGEVQGQKGWFPKSYVKLISG [L8H] | -0.361 ± 0.3
QGEKVEGDQAQALYPWRAKKDNHLNFNKNDVITVLEQQDMWWFGEVQGQKGWFPKSYVKLISG [L8D] | -0.236 ± 0.13

Variant | abundance fitness
QGEKVEGAQAQALYPWRAKKDNHLNFNKNDVITVLEQQDMWWFGEVQGQKGWFPKSYVKLISG [L8A] | 0.043 ± 0.092
QGEKVEGIQAQALYPWRAKKDNHLNFNKNDVITVLEQQDMWWFGEVQGQKGWFPKSYVKLISG [L8I] | -0.136 ± 0.31
QGEKVEGMQAQALYPWRAKKDNHLNFNKNDVITVLEQQDMWWFGEVQGQKGWFPKSYVKLISG [L8M] | 0.094 ± 0.13
QGEKVEGPQAQALYPWRAKKDNHLNFNKNDVITVLEQQDMWWFGEVQGQKGWFPKSYVKLISG [L8P] | -0.345 ± 0.2
QGEKVEQLQAQALYPWRAKKDNHLNFNKNDVITVLEQQDMWWFGEVQGQKGWFPKSYVKLISG [G7Q] | 0.164 ± 0.41
QGEKVEVLQAQALYPWRAKKDNHLNFNKNDVITVLEQQDMWWFGEVQGQKGWFPKSYVKLISG [G7V] | 0.076 ± 0.33
QGEKVERLQAQALYPWRAKKDNHLNFNKNDVITVLEQQDMWWFGEVQGQKGWFPKSYVKLISG [G7R] | -0.227 ± 0.4
QGEKVESLQAQALYPWRAKKDNHLNFNKNDVITVLEQQDMWWFGEVQGQKGWFPKSYVKLISG [G7S] | 0.006 ± 0.12
QGEKVEDLQAQALYPWRAKKDNHLNFNKNDVITVLEQQDMWWFGEVQGQKGWFPKSYVKLISG [G7D] | -0.095 ± 0.12
QGEKVYGLQAQALYPWRAKKDNHLNFNKNDVITVLEQQDMWWFGEVQGQKGWFPKSYVKLISG [E6Y] | -0.119 ± 0.24
QGEKVMGLQAQALYPWRAKKDNHLNFNKNDVITVLEQQDMWWFGEVQGQKGWFPKSYVKLISG [E6M] | -0.069 ± 0.25
QGEKVDGLQAQALYPWRAKKDNHLNFNKNDVITVLEQQDMWWFGEVQGQKGWFPKSYVKLISG [E6D] | -0.221 ± 0.26
QGEKVTGLQAQALYPWRAKKDNHLNFNKNDVITVLEQQDMWWFGEVQGQKGWFPKSYVKLISG [E6T] | -0.215 ± 0.12
QGEKVRGLQAQALYPWRAKKDNHLNFNKNDVITVLEQQDMWWFGEVQGQKGWFPKSYVKLISG [E6R] | -0.108 ± 0.097
QGEKVVGLQAQALYPWRAKKDNHLNFNKNDVITVLEQQDMWWFGEVQGQKGWFPKSYVKLISG [E6V] | -0.122 ± 0.17
QGEKVFGLQAQALYPWRAKKDNHLNFNKNDVITVLEQQDMWWFGEVQGQKGWFPKSYVKLISG [E6F] | -0.178 ± 0.24
QGEKVLGLQAQALYPWRAKKDNHLNFNKNDVITVLEQQDMWWFGEVQGQKGWFPKSYVKLISG [E6L] | -0.1 ± 0.12
QGEKVIGLQAQALYPWRAKKDNHLNFNKNDVITVLEQQDMWWFGEVQGQKGWFPKSYVKLISG [E6I] | -0.29 ± 0.23
QGEKVNGLQAQALYPWRAKKDNHLNFNKNDVITVLEQQDMWWFGEVQGQKGWFPKSYVKLISG [E6N] | -0.079 ± 0.19
QGEKVAGLQAQALYPWRAKKDNHLNFNKNDVITVLEQQDMWWFGEVQGQKGWFPKSYVKLISG [E6A] | -0.139 ± 0.11
QGEKVPGLQAQALYPWRAKKDNHLNFNKNDVITVLEQQDMWWFGEVQGQKGWFPKSYVKLISG [E6P] | 0.074 ± 0.12
